The target of this experiment is wild-type AC fused to GFP (AC-GFP), encoded by plasmid pAC0-Gfp (GFP: Aequorea victoria (variant not …, UniProt P42212 = GFP)). The experiment is described as follows: two-hybrid. To be noted: partners not purified.

Results on one molecule are retold here after PMC13334617 (Advanced Science, 2026).

B1: CaM fused to the V9A nanobody at its N-terminus and a tetra-cysteine tag at its C-terminus (CaM-V9A), encoded by plasmid pTCam-V9A (VHH)
VHH: DVQLQESGGGSVQAGGSLRLSCAASGDTFSSYSMAWFRQAPGKECELVSNILRDGTTTYAGSVKGRFTISRDDAKNTVYLQMVNLKSEDTARYYCAADSGTQLGYVGAVGLSCLDYVMDYWGKGTQVTVSS
notes: source: E. coli DHM1, expressed in cells from plasmid pTCam-V9A (high expression); not shown: tetra-cysteine tag, C-terminal, kept
As for B1, the “cAMP” value was above 250 nmol/mg and the “ß gal (Rel. Units)” value was found to be 107 Rel. Units.
